Assay results: article PMC6308316, “Characterization of a Putrescine Transaminase From Pseudomonas putida and its Application to the Synthesis of Benzylamine Derivatives” (Frontiers in Bioengineering and Biotechnology, 2018)

Molecular target: the molecule itself
Assay: crystal structure; apo Pp-SpuC; crystals in 0.2 M MgCl2, 0.1 M Bis-Tris pH 6.5, 25% PEG3350, 20°C; two monomers in the asymmetric unit

B1: putrescine transaminase from Pseudomonas putida (Pp-SpuC) (enzyme)
chain: MSTNNPQTREWQTLSGEHHLAPFSDYKQLKEKGPRIITKAQGVHLWDSEGHKILDGMAGLWCVAVGYGREELVQAAEKQMRELPYYNLFFQTAHPPALELAKAITDVAPEGMTHVFFTGSGSEGNDTVLRMVRHYWALKGKPHKQTIIGRINGYHGSTFAGACLGGMSGMHEQGGLPIPGIVHIPQPYWFGEGGDMTPDAFGIWAAEQLEKKILEVGEDNVAAFIAEPIQGAGGVIIPPETYWPKVKEILAKYDILFVADEVICGFGRTGEWFGSDYYDLKPDLMTIAKGLTSGYIPMGGVIVRDKVAKVISEGGDFNHGFTYSGHPVAAAVGLENLRILRDEQIVEKARTEAAPYLQKRLRELQDHPLVGEVRGLGMLGAIELVKDKATRSRYEGKGVGMICRTFCFENGLIMRAVGDTMIIAPPLVISHAEIDELVEKARKCLDLTLEAIR
notes: putrescine transaminase SpuC of Pseudomonas putida (strain NBRC 14161 bought from NCIMB), cloned in pET-28b as in Galman et al., 2017; in the crystal residues 1-33, 154-179 and 313-324 are disordered; No cleavage of the tag is told; Crystallised in the apo form (no PLP seen); also called putrescine transaminase spuC; source: E. coli BL21 (DE3), pET28b, purified (Ni-NTA, ion exchange on …)
  stoichiometry N: 2
